Patent publication US11426422B2, “SHP2 inhibitors and methods of use thereof” (Research Development Foundation, priority 2018, dated 2022)
Where no end group is shown, it is not given here. [ ]: non-standard residue; d: D form. pY = N[C@@H](Cc1ccc(OP(=O)(O)O)cc1)C(=O)O; pS = N[C@@H](COP(=O)(O)O)C(=O)O

Key:
SHP2 = biological target: T1, SHP2 (Homo sapiens, UniProt Q06124); experiment: in vitro phosphatase assay, dephosphorylation of IRS1 peptides by active SHP2; assay type: biochemical; conditions: doubly versus singly phosphorylated IRS1 peptide; active SHP2 2.9 μM, peptide 2.6 mM, 37° C.
T1 construct: purchased SignalChem
T1 sequence (Q06124 1-593): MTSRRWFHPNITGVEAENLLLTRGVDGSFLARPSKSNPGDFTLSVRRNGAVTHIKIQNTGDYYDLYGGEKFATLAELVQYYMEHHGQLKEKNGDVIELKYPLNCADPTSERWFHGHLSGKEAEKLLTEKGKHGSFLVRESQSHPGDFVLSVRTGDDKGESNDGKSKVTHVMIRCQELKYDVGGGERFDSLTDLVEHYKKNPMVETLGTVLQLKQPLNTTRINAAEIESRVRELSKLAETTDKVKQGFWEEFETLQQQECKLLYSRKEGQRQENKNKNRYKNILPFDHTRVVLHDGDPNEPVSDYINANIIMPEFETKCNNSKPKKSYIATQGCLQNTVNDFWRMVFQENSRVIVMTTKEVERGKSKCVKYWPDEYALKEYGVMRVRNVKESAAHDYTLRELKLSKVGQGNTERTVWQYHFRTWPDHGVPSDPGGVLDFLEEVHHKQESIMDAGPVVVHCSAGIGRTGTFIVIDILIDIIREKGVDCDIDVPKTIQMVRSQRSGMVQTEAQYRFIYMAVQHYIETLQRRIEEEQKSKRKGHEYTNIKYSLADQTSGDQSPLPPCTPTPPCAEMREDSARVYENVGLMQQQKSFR
Source text: To assess whether serine phosphorylation (pS616) of the YMPMS motif (SEQ ID NO:13) promotes dephosphorylation of pY612 by SHP2, its dephosphorylation kinetics were examined. […] Decreased IRS1 pS616 has been correlated with increased pY608 in vivo (Bard-Chapeau et al., 2005), and therefore, aside from directly augmenting the IRS1-AP2M1 interaction, ERK1/2-dependent phosphorylation of IRS1 indirectly promotes AP2M1 binding through enhancing the dephosphorylation of IRS1 by SHP2. Consistent with a role of ERK1/2-dependent phosphorylation of IRS1 in IR endocytosis, expression of the RNAi-resistant IRS1 phospho-mimicking mutant (3SD), but not the phospho-deficient mutant (3SA), restored IR endocytosis in 293FT cells depleted of IRS1/2 (FIG. 1G and FIG. 6E).
Active SHP2 (2.9 μM, SignalChem) diluted in the phosphatase dilution buffer (50 mM imidazole, pH 7.2, 0.2% 2-mercaptoethanol, 65 ng/μl BSA) was incubated with IRS1 peptides (2.6 mM) at 37° C. for the indicated time points. Two microliters of reaction products were spotted onto 0.45 m nitrocellulose membrane (BioRad) and dried completely. The membrane was blocked with 5% nonfat milk in TBS for 1 h, and washed once with TBS-T (0.02% Tween 20). […] The membranes were scanned with the Odyssey Infrared Imaging System (LI-COR, Lincoln, Nebr.) for quantification.

AP2M1 (residues 160-435) = biological target: T2, AP2M1 (residues 160-435) (Homo sapiens, UniProt Q96CW1); experiment: in vitro peptide pull-down of AP2M1 with IRS1 peptides; assay type: binding; conditions: peptide beads pull-down, SDS-PAGE, Coomassie
T2 construct: The AP2M1 fragment (residues 160-435) was cloned into a modified pET28a; His6 (N, cleaved yes); made in house; host or cells: E. coli BL21(DE3)
T2 sequence (Q96CW1 160-435): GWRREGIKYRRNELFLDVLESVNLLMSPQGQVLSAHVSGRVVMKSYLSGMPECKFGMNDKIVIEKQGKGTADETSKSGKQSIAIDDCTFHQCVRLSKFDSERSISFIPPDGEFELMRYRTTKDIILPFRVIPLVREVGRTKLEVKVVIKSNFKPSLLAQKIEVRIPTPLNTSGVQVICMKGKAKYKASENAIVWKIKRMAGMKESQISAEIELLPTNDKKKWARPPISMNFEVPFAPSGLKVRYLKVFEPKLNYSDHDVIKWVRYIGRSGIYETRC
Experimental: FIGS. 2A-I. The MAPK pathway and SHP2 promote insulin-activated IR endocytosis. (FIG. 2A) HepG2 cells expressing IR-GFP WT were starved, treated with the indicated inhibitors for 2 h, treated without or with 100 nM insulin for 20 min, and stained with anti-GFP (IR; green) and DAPI (blue). See also FIG. 7A for representative images. Quantification of the ratios of PM and IC IR-GFP signals of cells was shown (mean±SD; *p<0.0001). (FIG. 2B) Binding of IRS1 peptides to AP2M1 (residues 160-435). Input and proteins bound to IRS1-peptide beads were analyzed by SDS-PAGE and stained with Coomassie (CBB). The relative band intensities are shown below (mean±SD; n=4 independent experiments). (FIG. 2C) ITC analysis of binding between IRS1 peptides and AP2M1 (residue 160-435), with the Kd indicated. (FIG. 2D) The IRS1 peptides were incubated with active SHP2 for the indicated durations, spotted onto membranes, and detected with the anti-pY612-IRS1 antibody. (FIG. 2E) Quantification of the relative SHP2 activity in FIG. 2D (mean±SD; n=4 independent experiments; *p<0.0001). (FIG. 2F) Model of the regulation of insulin-activated IR endocytosis by a phosphorylation switch on IRS1/2. Insulin-bound IR phosphorylates itself and IRS1/2, and activates the PI3K-AKT and MAPK pathways. SHP2 acts upstream of RAS-RAF and promotes the activation of MAPK pathway. p31^comet binds to the IR-bound MAD2 and blocks IR-AP2 association to prevent premature IR endocytosis. In feedback regulation, activated ERK1/2 phosphorylate S616 and other sites on IRS1. […]
For GST pull-down assays of in vitro translated (IVT) IRS1 proteins, beads bound to GST-AP2M1 or GST were incubated with IVT products diluted in the cell lysis buffer at 4° C. for 2 h. After incubation and washing, proteins bound to beads were eluted with the SDS loading buffer, resolved with SDS-PAGE, and detected with Coomassie staining or immunoblotting with the appropriate antibodies. […]

- dephosphorylation of pY612 by SHP2 (SHP2): promoted pY612 dephosphorylation by SHP2
- binding to AP2M1 (AP2M1 (residues 160-435)): abolished AP2M1 binding
Substance: pYMPMpS: doubly phosphorylated IRS1 peptide CHTDDGpYMPMpSPGVA (SEQ ID NO:16) (CHTDDG[pY]MPM[pS]PGVA)
